Laboratory results taken from the supplement of paper PMC10567573.

B1: VPS39 (parent)
chain: QQVKCIITEEKVCMVCKKKIGNSA

Variants of: B1
Test: protein stability index of a GFP-peptide fusion (GPS, HEK-293T) (PSI 1-6); higher = more stable
Settings: c terminus: a fixed tail appended
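Also: lentivirally expressed fusions sorted by FACS into six bins by GFP to DsRed ratio, PSI derived from sequencing read proportions per bin multiplied by bin number.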

Protein stability index, by site and new letter:
M14: N 2.67 | P 3.15 | A 2.49 | V 2.8 | H 3.13 | C 4.14 | I 2.14 | Q 3.06 | T 3.3 | W 2.02 | Y 2.57 | K 3.44 | E 3.61 | F 2.89
K17: E 3.21 | R 2.27 | S 2.82 | P 3 | N 3.05 | C 3.34 | W 2.66 | V 1.54 | H 2.46 | M 2.29 | G 3.58 | Q 3.11 | F 2.85 | L 1.42 | T 2.5 | D 3.68 | Y 3.09 | I 1.74
V15: M 2.83 | T 3.68 | R 3.07 | E 4.38 | D 3.34 | F 2.92 | A 3.32 | P 3.99 | I 2.27 | S 3.74 | G 2.71 | Q 2.6 | W 2.97 | K 3.05 | N 3.08 | C 3.26 | L 2.82 | Y 2.17 | H 3.43
V12: Y 2.31
K19: W 1.76 | M 1.67 | H 2.12 | N 2.15 | L 2.56 | A 2.38 | T 2.66 | S 2.25 | E 2.89 | V 2.5 | R 2.28 | D 3.52 | Q 2.19 | P 2.14 | F 1.72 | Y 2.09 | C 3.48 | G 2.48
K18: Y 1.41 | M 1.57 | G 2.56 | T 2.08 | N 2.94 | W 1.02 | F 1.98 | S 3.09 | L 2.16 | I 2.43 | V 1.78 | H 3.24 | P 2.37 | Q 2.5 | A 2.88 | E 3.09 | R 2.33 | D 3.4 | C 2.02
G21: M 2.13 | Y 2.3 | F 2.87 | L 2.31 | C 3.19 | I 3.17 | K 3.08 | Q 2.76 | V 3.1 | A 2.98 | H 2.93 | W 1.76 | T 2.51 | P 2.55 | D 2.81 | S 2.7 | R 2.16 | N 3.01 | E 3.32
C16: S 3.45 | K 3.41 | E 4.29 | P 4.22 | L 3.07 | Q 3.93 | G 4.28 | R 4.5 | T 3.72 | I 2.19 | W 2.5 | Y 3.69 | D 4.91 | N 3.88 | A 3.96 | H 3.79 | F 3.15 | M 3.13
I20: K 3.58 | Y 3.15 | R 3.26 | H 4.29 | A 3.35 | D 3.51 | E 4.03 | V 1.95 | G 2.79 | T 2.89 | S 3.67 | C 3.26 | M 3.33 | L 3.15 | F 3.06 | P 3.17 | N 2.69 | Q 3.53
C13: M 2.98 | R 3.95 | Y 2.91 | K 2.82 | A 3.88 | F 2.54 | Q 3.78 | I 3.09 | T 3.83 | L 3.1 | E 4.41 | N 4.4 | P 3.78 | G 3.48 | D 4.67 | V 2.59 | S 3.52 | W 2.6 | H 3.62
N22: D 3.7 | A 2.21 | C 2.98 | E 3.33
